Data on three substances can be found in patent publication US20190390204A1.

Test in all cases: cell-based or functional assay
For test [1], the target named is TALE(Ngn2)-NLS-CRY2PHR.
For test [2], the target named is LITE2.0 TALE-CIB1 component.
In test [3] the target is LITE 1.9.1 TALE-CIB1 construct (mutated NLS, Δ318-334, AD5 NES).

In test [1], CIB1-NLS-VP64_2A_GFP returned a Neurog2 expression (qPCR) after 0.5 h of light stimulation, vs YFP samples of 5 fold and a Neurog2 expression (qPCR), peak at 12 h of light stimulation, vs YFP samples of 19 fold.
In the case of LITE2.0 CRY2PHR-VP64 component, the light induction (light/no-light ratio of Neurog2 expression), LITE2.0 in test [2] is 20.4.
CRY2PHR-NLS-VP64_2A_GFP: in test [3], the background mRNA increase (no light), LITE1.9.1 was 1.06 fold and the light induction (light/no-light), LITE1.9.1 was determined as 4 fold.
